Test results as given in US20180327803A1.

Experiments:
[1] = molecular target: human IgG1 antibody (#I5154; Sigma-Aldrich) (human); test: SPR, single cycle kinetics, IgG1 chip
[2] = molecular target: human serum-derived IgG polyclonal antibody (#I4506; Sigma-Aldrich) (human); test: scFv-immobilized HiTrap NHS column

Kd [1]: 2.1 nM
koff [1]: 4.3e-05 s⁻¹
kon [1]: 21000 M⁻¹ s⁻¹
amount of IgG adsorbed to the column and eluted [2]: 5.3 mg
percent of supplied IgG adsorbed to the column and eluted [2]: 53%
B1: R3-26 rabbit-derived single-chain antibody-His (scFv)
scFv: QEQLVESGGGLVKPGGTLTLTCTVSGIDLSSYAMSWVRQVPGKGLEWIGIIGSGGGTAYANWAKGRFTISKTSSTTVDLKMTSLTTEDTATYFCATDYGIYGYAYGHLWGPGTLVTVTSGGGGSGGGGSGGGGSELVMTQTASPVSAAVGGTVTIKCQASQSISTALAWYQQRPGQPPKLLIYDASTLASGVSSRFKGSGSGTEFTLTISDLECADAATYYCQTYFGSDTDNAFGEGTEVEITGSHHHHHH
